Results on seven molecules are retold here after patent US20060292634A1 (CATCHMABS B V, published 2006).

Residue numbers refer to the chain shown, from its start.

Assay [1] addresses T1, chicken lysozyme (chicken, UniProt P00698 19-147).
T1 construct: Coated on ELISA plates (100 µg/ml) or immobilized on / passed over Eupergit columns
Nature of the assay: ELISA, lysozyme-coated well (100 µg/ml), ~50 ng iMab per well, anti-VSV-HRP; urea-purified.
Procedure: (§1) The microtiter plate was excessively washed with PBS (3 times), PBS+0.1% Tween-20 (3 times) and PBS (3 times).
(§2) After excessive washing using PBS (3 times), PBS+0.1% Tween-20 (3 times) and PBS (3 times), wells were incubated with 100 μl Turbo-TMB for 5 minutes. Reaction was stopped with 100 μl 2M H₂SO₄ and absorbtion was read at 450 nm using a microtiter plate reader (Biorad).

The target of assay [2] is T1, chicken lysozyme. In words: ELISA on lysozyme, 100-fold dilution of the protein extract. Background: ELISA stands for enzyme-linked immunosorbent assay.
Procedure: as §1, §2
For assay [3], the target named is T1, chicken lysozyme. In words: ELISA.

T1 sequence (P00698 19-147 limits assumed): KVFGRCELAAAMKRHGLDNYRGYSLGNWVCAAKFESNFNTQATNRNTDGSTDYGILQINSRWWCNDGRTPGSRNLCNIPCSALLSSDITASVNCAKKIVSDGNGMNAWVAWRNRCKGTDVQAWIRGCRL

B1: iMab1300 (designed binder)
chain: LQVDIKPSQGEISVGESKFFLCQASGYTIGPCISWFSPNGEKLNMGSSTLTIYNANIDDAGIYKCAADSTIYASYYECGHGLSTGGYGYQSEATVNVKIFQ
notes: not shown: C-terminal linker, VSV-tag and 6xHis-tag from vector CM126
For B1, the “Absorbtion (450 nm)” value in the assay with chicken lysozyme [1] was determined as 0.325 A450.

B2: iMab111 (designed binder)
chain: NVKLVCKGGNFVENDDDLKLTCRAEGYTIGPYCMGWFRQAPNDDSTNVATINMGGGITYYGDSVKERFDIRRDNASNTVTLSMDDLQPEDSAEYNCAGDSTIYASYYECGHGLSTGGYGYDSHYRCQGTDVTVSS
notes: as for B1
Turning to B2, the “ELISA signal over background signal (fold)” value in the assay with chicken lysozyme [2] is about 20 fold. The “Absorbtion (450 nm)” value with chicken lysozyme [1] was found to be 0.42 A450.

B3: iMab115 (designed binder)
chain: B2 chain with C6E, N74Q, C126G
notes: Expressed in E. coli (21 kD); also called iMab without glycosylation site
As to B3, the binding result with chicken lysozyme [3] was “binds”.

B4: iMab122 (designed binder)
chain: NVKLVEKGGNFVENDDDLKLTCRASGRTFSSRTMGWFRQAPNDDSTNVATIRWNGGSTYYTNYGDSVKERFDIRVDQASNTVTLSMDDLQPEDSAEYNCAGTDIGDGWSGRYDYRGQGTDVTVSS
notes: as for B1
For the molecule B4, in the assay with chicken lysozyme [1], the “Absorbtion (450 nm)” value turned out to be 0.271 A450.

B5: iMab1202 (designed binder)
chain: IVKLVMEKRGNFENGQDCKLTIRASGYTIGPACDGFFCQFPSDDSFSTEDNMGGGITVNDAMKPQFDIRRDNAKGTWTLSMDFQPEGIYEMQCAADSTIYASYYECGHGLSTGGYGYDNPVRLGGFDVDVPDV
notes: also called iMab1202 (1EJ6); not shown: C-terminal linker, VSV-tag and 6xHis-tag from vector CM126
With B5, in the assay with chicken lysozyme [1], the “Absorbtion (450 nm)” value worked out at 0.317 A450.

B6: iMab1302 (designed binder)
chain: VVKVVIKPSQNFIENGEDKKFTCRASGYTIGPKCIGWFSQNPEDDSTNVATINMGGGITYYGDSVKERFDIRRDNAKDTSTLSIDDAQPEDAGIYKCAADSTIYASYYECGHGLSTGGYGYDSEATVGVDIFVKLM
notes: as for B1
Take B6: the “Absorbtion (450 nm)” value in the assay with chicken lysozyme [1] was found to be 0.345 A450.

B7: iMab1602 (designed binder)
chain: AVKPVIGSKAPNFGENGDVKTIDRASGYTIGPTCGGVFFQGPTDDSTNVATINMGGGITYYGDSVKETFDIRRDNAKSTRTESYDDNQPEGLTEVKCAADSTIYASYYECGHGLSTGGYGYDVSSRLYGYDILVGTQ
notes: as for B1
Take B7: the “Absorbtion (450 nm)” value with chicken lysozyme [1] came out at 0.357 A450.
